Test results: patent US20090304581A1

Target: CD20 on Daudi cells (human) (UniProt P11836)
Test: live-cell radioimmunoreactivity assay on Daudi cells, cell pellet cpm over total cpm

UniProt P11836, sequence (P11836 whole entry): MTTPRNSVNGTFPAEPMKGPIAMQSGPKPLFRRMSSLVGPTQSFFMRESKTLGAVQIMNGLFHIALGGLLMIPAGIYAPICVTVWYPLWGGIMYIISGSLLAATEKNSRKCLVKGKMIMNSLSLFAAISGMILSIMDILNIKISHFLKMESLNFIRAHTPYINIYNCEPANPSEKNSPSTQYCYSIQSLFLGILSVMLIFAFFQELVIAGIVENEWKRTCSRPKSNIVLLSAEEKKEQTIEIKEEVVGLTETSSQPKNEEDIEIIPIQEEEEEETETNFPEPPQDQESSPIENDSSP

In the case of SWNT-rituximab-111In*DOTA (antibody), the maximum binding (immunoreactive fraction) is reported as 29%.
